Patent publication US20200231681A1 (CHONG KUN DANG PHARMACEUTICAL, published 2020)

Experiments:
[1] = target: T1, human IGF-I R (R&D systems, 391-GR-050) (human, UniProt P08069 31-932); assay: indirect ELISA, hu8C4 at 0.010 nM
Description: (§1) Each antigen was diluted in 0.05 M carbonate-bicarbonate (Sigma, C3041) buffer at a concentration of 1 μg/ml, after which the resulting antigen was added into each well of a 96-well plate (Corning, #2592), such that the resulting plate was coated at 4° C. overnight. The plate was washed once with TBS-T, after which TBS-T containing 4%—skim milk was added by 200 μl into each well of the resulting plate in order to inhibit a non-specific binding, such that the resulting plate was reacted at 37° C. for 1 hour. Then, the plate was washed once with TBS-T buffer, after which a primary antibody was sequentially diluted in TBS-T buffer containing 2%—skim milk from a highest concentration of 30 nM to 0.002 nM, such that the resulting antibody was added by 100 μk into each well, thus being reacted at 37° C. for 2 hours. After being washed three times with TBS-T buffer, an anti-human kappa light chains-peroxidase (Sigma, A7164) was diluted at a ratio of 1:5000 as a secondary antibody, after which the resulting antibody was added by 100 μl into each well, thus being reacted at 37° C. for 1 hour. Then, after being washed three times with TBS-T buffer, TMB solution (Sigma, T4444) was added by 100 μl into each well to carry out an color developing reaction, after which 2 N […] solution was added by 50 μl into each well to stop the reaction. An optical density was measured based on a value at a wavelength of 450 nm by using a microplate reader and a reference wavelength of 570 nm was used.

[2] = target: T2, human PDGF Rβ Fc chimera (R&D systems, 385-PR_CF) (human, UniProt P09619 33-530); assay: indirect ELISA, hu8C4 at 0.010 nM
Description: as §1

[3] = target: T3, human MSP R/Ron (R&D systems, 1947-MS-050) (human, UniProt Q04912 25-571, limits assumed); assay: indirect ELISA, hu8C4 at 0.010 nM
Description: as §1

[4] = target: T4, mouse c-Met (SiNo. Biological Inc, 50622-M08H) (mouse, UniProt P16056 25-931); assay: ELISA, antigen coated at 2 µg/ml, antibody 6.4 pM to 100 nM, anti-human IgG F(ab')2-HRP, TMB, O.D. at 450 nm [panel Mouse cMet]
T4 construct: extracellular domain
Description: (§2) Particularly, mouse c-Met (SiNo. Biological Inc, 50622-M08H), cynomolgus monkey c-Met (SiNo. Biological Inc, 90304-CO8H), human c-Met (R&D Systems, 358-MT), mouse EGFR (SiNo. Biological Inc, 51091-M08H), cynomolgus monkey EGFR (SiNo. Biological, 90285-008B) and human EGFR (Abcam, 155639) antigens were all divided into a 96-well plate at a concentration of 2 μg/ml, after which the resulting plate was reacted at 4° C. overnight.
(§3) Color development was made by using TMB (Sigma, T4444) solution, wherein its value was measured at an optical density of 450 nm and its ELISA results are shown in FIG. 9.

[5] = target: T5, cynomolgus monkey c-Met ECD (SiNo. Biological, 90304-CO8H) (cynomolgus monkey, UniProt A0A2K5UM36 25-932); assay: SPR (BIAcore), antibody captured by anti-human IgG Fc, antigen as analyte, 1:1 Langmuir
T5 construct: not shown: The vendor's tag
Description: (§4) The antibodies were diluted in HBS-EP buffer (0.01 M HEPES pH 7.4, 0.15 M NaCl, 3 mM EDTA and 0.005% (v/v) Surfactant P20) at a concentration of 1-2 μg/ml, after which the resulting antibodies were injected into a CM5 chip with an anti-human Ig Fc fixed thereto at a flow rate of 30 μl/min for 10-120 seconds, and then captured in a range of 150-200 RU. Each antigen was used after being diluted at 10, 5, 2.5, 1.25, 0.625, 0.3125 and 0.15625 nM, after which the resulting antigens were sequentially injected from a lower concentration. Then, the resulting antigens were injected at a flow rate of 30 μl/min for 5 minutes to carry out binding, after which a running buffer was injected thereinto for 10-15 minutes to carry out a dissociation. 15 μl of 10 mM Glycine-HCl (pH 1.5) was used to revive the chip.

[6] = target: T6, human c-Met ECD (ACROBiosystems, MET-H5227) (human, UniProt P08581 25-932); assay: as above
T6 construct: extracellular domain; Bought protein
Description: as §4

[7] = target: T1, human IGF-I R (R&D systems, 391-GR-050); assay: indirect ELISA, hu8C4 at 30.000 nM
Description: as §1

[8] = target: T2, human PDGF Rβ Fc chimera (R&D systems, …); assay: indirect ELISA, hu8C4 at 30.000 nM
Description: as §1

[9] = target: T3, human MSP R/Ron (R&D systems, …); assay: indirect ELISA, hu8C4 at 30.000 nM
Description: as §1

[10] = target: T7, mouse EGFR (SiNo. Biological Inc, 51091-M08H) (mouse, UniProt Q01279 25-647); assay: ELISA, coated antigen 2 µg/ml
T7 construct: extracellular domain
Description: as §2, §3

[11] = target: T1, human IGF-I R (R&D systems, 391-GR-050); assay: indirect ELISA, hu8C4 at 0.240 nM
Description: as §1

[12] = target: T2, human PDGF Rβ Fc chimera (R&D systems, …); assay: indirect ELISA, hu8C4 at 0.240 nM
Description: as §1

[13] = target: T8, human VEGF R2 Fc chimera (R&D systems, 357-KD_CF) (human, UniProt P35968 20-764); assay: indirect ELISA, hu8C4 at 0.240 nM
T8 construct: also called VEGFR R2
Description: as §1

[14] = target: T3, human MSP R/Ron (R&D systems, …); assay: indirect ELISA, hu8C4 at 0.240 nM
Description: as §1

B1: hu8C4 (IgG1 humanized antibody having a hinge region of SEQ ID NO: 38 in hu8C4-1) (antibody, V domains shown)
VH: EVQLVESGGGLVQPGGSLRLSCAASGYTFSDYYINWVRQAPGKGLEWIGEIFPGSGNTHFSARFKGRATLSADKSKNTAYLQMNSLRAEDTAVYYCAGGDYGFLYWGQGTLVTVSS
VL: DIQMTQSPSSLSASVGDRVTITCGASENIYGALNWYQQKPGKAPKLLIYGATNLADGVPSRFSGSGSGRDFTFTISSLQPEDIATYYCQNVLSSPYTFGQGTKVEIK
notes: light chain detected with anti-human kappa; also called anti-c-Met antibody hu8C4; hu8C4 monospecific antibody
Question: With B1 as the binder, how does the “A450 nm-A570 nm” value [1] read?
Answer: Its value is 0 A450 nm-A570 nm.

Question: And the “A450 nm-A570 nm” value [2]?
Answer: The value was -0.01 A450 nm-A570 nm.

Question: What about the “A450 nm-A570 nm” value [3] of the same binder?
Answer: Its value is 0 A450 nm-A570 nm.

Question: Does B1 bind [4]?
Answer: Result: no binding (tested: 100 nM)

Question: And the Kd [5]?
Answer: Its Kd is 0.462 nM.

Question: And the koff [5]?
Answer: Its koff is 0.000345 s⁻¹.

Question: And the kon [5]?
Answer: Its kon is 747000 M⁻¹ s⁻¹.

Question: And the Kd [6]?
Answer: The Kd was 0.317 nM.

Question: What about the koff [6] of the same binder?
Answer: Its koff is 0.000215 s⁻¹.

Question: And the kon [6]?
Answer: The kon was 677000 M⁻¹ s⁻¹.

Question: What about the “A450 nm-A570 nm” value [7] of the same binder?
Answer: Its value is 0 A450 nm-A570 nm.

Question: What about the “A450 nm-A570 nm” value [8] of the same binder?
Answer: Its value is 0.01 A450 nm-A570 nm.

Question: And the “A450 nm-A570 nm” value [9]?
Answer: Its value is 0 A450 nm-A570 nm.

Question: Does B1 bind [10]?
Answer: Result: no binding

Question: And the “A450 nm-A570 nm” value [11]?
Answer: Its value is 0 A450 nm-A570 nm.

Question: What about the “A450 nm-A570 nm” value [12] of the same binder?
Answer: The value was -0.01 A450 nm-A570 nm.

Question: What about the “A450 nm-A570 nm” value [13] of the same binder?
Answer: Its value is -0.02 A450 nm-A570 nm.

Question: And the “A450 nm-A570 nm” value [14]?
Answer: The value was 0 A450 nm-A570 nm.
